No end group written: not given here.
Columns and labels:
Assay in all cases: Kinase Profiling Assay
Format in all cases: biochemical
Settings in all cases: peptide 100 μM
EGFR(L858R)(h) = EGFR(L858R)(h) (Homo sapiens, UniProt P00533, L858R)
Outline: (§1)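 Each kinase activity was measured in duplicate. Phosphorylation of a positively charged substrate with radiolabeled phosphate from ATP was captured on a negatively charged filter, counted by scintillation and expressed relative to a 100% activity control. MK2 inhibitory peptides were screened for specificity across 266 human kinases.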

EphA2(h) = EphA2(h) (Homo sapiens, UniProt P29317)
Outline: as §1

Syk(h) = target: T1, Syk(h) (Homo sapiens, UniProt P43405)
T1 construct: purchased Millipore
Outline: as §1

PKBβ(h) = PKBβ(h) (Homo sapiens, UniProt P31751)
Sequence of PKBβ(h) (P31751 whole entry): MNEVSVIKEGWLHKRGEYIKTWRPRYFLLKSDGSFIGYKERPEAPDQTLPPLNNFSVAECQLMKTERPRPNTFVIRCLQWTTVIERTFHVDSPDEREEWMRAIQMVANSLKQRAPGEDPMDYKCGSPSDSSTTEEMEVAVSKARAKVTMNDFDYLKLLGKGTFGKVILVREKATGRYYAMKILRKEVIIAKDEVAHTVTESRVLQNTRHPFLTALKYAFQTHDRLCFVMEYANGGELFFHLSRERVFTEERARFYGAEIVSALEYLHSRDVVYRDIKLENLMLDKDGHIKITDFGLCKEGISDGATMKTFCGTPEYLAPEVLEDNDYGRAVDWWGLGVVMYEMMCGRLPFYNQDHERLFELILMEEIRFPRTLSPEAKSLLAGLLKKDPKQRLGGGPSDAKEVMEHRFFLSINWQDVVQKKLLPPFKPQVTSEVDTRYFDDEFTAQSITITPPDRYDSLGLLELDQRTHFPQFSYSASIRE
Outline: as §1

KDR(h) = target: T2, KDR(h) (Homo sapiens, UniProt P35968)
T2 construct: purchased Millipore
T2 sequence (P35968 20-1356): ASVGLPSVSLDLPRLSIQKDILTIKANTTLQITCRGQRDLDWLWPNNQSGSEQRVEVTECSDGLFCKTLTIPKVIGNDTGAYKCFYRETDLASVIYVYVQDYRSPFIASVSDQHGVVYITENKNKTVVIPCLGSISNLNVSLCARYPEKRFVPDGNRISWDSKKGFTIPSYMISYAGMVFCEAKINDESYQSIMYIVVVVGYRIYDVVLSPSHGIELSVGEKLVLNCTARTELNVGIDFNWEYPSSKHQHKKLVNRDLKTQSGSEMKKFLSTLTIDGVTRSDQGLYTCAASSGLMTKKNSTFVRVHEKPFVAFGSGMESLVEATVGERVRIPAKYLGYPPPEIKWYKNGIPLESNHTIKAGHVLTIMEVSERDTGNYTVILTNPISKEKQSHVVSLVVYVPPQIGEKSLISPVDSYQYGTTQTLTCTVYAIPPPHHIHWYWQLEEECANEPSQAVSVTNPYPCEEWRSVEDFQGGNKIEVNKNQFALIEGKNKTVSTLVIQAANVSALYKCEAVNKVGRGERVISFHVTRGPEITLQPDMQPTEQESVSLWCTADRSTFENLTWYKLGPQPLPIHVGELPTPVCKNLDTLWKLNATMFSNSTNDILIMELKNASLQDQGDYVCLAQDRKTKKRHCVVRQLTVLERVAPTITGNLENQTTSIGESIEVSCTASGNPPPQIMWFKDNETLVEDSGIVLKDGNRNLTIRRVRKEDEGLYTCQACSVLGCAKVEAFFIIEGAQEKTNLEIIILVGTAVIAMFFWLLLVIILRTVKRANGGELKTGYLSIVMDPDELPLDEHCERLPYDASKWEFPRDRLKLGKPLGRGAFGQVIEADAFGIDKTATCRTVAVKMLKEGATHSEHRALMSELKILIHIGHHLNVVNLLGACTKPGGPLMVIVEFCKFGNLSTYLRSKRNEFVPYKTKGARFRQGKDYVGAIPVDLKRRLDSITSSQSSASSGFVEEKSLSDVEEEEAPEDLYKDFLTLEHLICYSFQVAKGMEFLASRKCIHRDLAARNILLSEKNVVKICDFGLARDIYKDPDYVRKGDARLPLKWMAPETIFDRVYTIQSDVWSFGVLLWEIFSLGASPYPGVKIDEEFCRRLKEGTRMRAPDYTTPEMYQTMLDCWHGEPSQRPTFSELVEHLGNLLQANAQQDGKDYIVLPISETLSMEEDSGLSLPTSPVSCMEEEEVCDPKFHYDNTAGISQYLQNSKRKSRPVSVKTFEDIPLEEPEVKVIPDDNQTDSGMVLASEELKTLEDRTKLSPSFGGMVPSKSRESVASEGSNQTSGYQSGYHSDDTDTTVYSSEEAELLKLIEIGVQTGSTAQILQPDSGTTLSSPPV
Outline: as §1

ROCK-II(h) = ROCK-II(h) (Homo sapiens, UniProt O75116)
Sequence of ROCK-II(h) (O75116 whole entry): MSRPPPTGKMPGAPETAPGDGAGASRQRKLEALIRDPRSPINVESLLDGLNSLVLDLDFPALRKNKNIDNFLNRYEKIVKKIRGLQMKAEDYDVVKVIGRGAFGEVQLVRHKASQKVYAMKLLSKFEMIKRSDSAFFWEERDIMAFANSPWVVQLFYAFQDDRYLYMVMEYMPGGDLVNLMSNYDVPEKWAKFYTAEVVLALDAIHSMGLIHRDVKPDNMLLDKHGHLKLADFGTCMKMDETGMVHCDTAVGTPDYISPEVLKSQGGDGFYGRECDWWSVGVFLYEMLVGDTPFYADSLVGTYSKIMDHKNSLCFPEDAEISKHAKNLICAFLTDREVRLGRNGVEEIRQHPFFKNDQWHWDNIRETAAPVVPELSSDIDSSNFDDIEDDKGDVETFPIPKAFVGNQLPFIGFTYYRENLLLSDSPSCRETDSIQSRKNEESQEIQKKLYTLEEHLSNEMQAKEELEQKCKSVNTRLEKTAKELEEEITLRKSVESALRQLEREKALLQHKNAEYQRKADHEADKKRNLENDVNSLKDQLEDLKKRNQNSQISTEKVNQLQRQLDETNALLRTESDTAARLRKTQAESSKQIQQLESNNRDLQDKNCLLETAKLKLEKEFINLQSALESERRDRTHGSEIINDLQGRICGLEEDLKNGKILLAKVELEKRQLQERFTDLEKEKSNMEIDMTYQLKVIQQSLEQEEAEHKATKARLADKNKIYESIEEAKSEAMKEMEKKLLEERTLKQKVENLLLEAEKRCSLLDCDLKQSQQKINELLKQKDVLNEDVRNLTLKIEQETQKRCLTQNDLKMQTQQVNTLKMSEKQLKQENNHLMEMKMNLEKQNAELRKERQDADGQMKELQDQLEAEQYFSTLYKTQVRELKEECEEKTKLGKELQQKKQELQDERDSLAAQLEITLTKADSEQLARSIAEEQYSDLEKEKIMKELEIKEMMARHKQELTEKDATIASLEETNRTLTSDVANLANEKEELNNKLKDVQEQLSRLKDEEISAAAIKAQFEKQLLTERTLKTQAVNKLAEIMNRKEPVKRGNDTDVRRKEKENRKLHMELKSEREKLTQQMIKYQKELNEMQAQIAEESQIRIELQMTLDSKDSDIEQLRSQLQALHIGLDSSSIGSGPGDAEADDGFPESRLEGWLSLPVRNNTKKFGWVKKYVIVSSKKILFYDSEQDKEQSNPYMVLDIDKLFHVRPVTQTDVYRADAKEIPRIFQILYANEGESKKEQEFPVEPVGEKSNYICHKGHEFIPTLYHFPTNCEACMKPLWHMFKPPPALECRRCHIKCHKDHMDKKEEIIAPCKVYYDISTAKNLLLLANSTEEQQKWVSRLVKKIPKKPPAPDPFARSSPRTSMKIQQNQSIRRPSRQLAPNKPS
Outline: as §1

p70S6K(h) = target: T3, p70S6K(h) (Homo sapiens, UniProt P23443)
T3 construct: purchased Millipore
T3 sequence (P23443 whole entry): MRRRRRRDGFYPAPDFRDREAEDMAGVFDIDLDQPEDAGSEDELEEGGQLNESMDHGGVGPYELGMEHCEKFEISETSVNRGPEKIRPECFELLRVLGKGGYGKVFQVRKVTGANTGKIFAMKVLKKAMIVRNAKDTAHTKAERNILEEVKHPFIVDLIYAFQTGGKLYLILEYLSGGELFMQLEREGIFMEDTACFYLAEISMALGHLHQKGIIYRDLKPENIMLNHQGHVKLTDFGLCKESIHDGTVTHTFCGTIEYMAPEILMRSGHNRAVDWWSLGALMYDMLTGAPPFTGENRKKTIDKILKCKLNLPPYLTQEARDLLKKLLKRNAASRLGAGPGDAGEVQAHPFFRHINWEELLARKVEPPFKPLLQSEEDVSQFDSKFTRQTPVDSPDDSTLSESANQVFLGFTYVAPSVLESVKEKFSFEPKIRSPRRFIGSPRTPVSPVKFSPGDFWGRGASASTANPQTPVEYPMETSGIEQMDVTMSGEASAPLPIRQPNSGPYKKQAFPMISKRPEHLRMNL
Outline: as §1

FAK(h) = FAK(h) (Homo sapiens, UniProt Q05397)
Outline: as §1

MuSK(h) = target: T4, MuSK(h) (Homo sapiens, UniProt O15146)
T4 construct: purchased Millipore
T4 sequence (O15146 24-869): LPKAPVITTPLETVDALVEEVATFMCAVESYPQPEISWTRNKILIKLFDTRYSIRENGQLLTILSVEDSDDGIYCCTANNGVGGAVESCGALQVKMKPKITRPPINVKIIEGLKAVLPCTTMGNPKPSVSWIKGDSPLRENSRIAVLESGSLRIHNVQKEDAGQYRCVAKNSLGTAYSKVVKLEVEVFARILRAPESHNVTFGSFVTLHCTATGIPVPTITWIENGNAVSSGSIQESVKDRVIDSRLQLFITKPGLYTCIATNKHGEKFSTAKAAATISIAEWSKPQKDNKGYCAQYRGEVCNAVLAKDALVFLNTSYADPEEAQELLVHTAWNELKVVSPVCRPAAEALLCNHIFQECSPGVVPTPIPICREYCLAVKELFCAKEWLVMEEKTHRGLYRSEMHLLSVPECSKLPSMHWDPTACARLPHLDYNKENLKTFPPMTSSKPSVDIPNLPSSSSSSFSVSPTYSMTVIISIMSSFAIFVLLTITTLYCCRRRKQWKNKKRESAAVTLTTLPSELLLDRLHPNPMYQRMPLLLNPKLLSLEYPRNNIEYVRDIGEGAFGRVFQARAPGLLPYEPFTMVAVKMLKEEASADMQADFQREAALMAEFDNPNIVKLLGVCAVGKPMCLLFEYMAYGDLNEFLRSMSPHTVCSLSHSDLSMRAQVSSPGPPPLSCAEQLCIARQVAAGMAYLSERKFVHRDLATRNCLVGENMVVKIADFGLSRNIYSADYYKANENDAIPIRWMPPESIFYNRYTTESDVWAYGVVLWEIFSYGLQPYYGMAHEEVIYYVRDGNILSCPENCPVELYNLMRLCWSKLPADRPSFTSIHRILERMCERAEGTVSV
Outline: as §1

TAK1(h) = target: T5, TAK1(h) (Homo sapiens, UniProt O43318)
T5 construct: purchased Millipore
T5 sequence (O43318 1-303 limits assumed): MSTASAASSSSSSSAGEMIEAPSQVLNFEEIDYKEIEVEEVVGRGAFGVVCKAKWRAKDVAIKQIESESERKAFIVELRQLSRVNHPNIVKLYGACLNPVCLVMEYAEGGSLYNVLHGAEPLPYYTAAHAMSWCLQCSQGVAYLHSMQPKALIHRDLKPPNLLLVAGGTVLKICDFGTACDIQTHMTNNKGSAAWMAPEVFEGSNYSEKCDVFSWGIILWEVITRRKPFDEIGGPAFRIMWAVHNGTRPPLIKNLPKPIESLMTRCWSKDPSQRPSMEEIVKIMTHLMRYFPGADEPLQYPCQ
Outline: as §1

IRAK4(h) = target: T6, IRAK4(h) (Homo sapiens, UniProt Q9NWZ3)
T6 construct: purchased Millipore
T6 sequence (Q9NWZ3 1-460): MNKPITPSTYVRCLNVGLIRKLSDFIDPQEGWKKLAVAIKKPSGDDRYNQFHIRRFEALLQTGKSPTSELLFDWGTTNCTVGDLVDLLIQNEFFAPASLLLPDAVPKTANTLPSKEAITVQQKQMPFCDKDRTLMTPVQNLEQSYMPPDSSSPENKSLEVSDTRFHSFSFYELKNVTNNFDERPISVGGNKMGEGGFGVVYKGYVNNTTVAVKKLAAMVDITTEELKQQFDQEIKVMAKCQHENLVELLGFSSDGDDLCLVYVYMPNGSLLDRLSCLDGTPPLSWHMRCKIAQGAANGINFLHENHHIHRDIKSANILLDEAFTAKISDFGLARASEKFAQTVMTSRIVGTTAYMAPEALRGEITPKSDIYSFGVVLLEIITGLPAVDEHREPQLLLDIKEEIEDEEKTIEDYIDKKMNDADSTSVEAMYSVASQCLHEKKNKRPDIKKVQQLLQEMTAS
Outline: as §1

BTK(R28H)(h) = BTK(R28H)(h) (Homo sapiens, UniProt Q06187, R28H)
Sequence of BTK(R28H)(h) (Q06187 whole entry R28H): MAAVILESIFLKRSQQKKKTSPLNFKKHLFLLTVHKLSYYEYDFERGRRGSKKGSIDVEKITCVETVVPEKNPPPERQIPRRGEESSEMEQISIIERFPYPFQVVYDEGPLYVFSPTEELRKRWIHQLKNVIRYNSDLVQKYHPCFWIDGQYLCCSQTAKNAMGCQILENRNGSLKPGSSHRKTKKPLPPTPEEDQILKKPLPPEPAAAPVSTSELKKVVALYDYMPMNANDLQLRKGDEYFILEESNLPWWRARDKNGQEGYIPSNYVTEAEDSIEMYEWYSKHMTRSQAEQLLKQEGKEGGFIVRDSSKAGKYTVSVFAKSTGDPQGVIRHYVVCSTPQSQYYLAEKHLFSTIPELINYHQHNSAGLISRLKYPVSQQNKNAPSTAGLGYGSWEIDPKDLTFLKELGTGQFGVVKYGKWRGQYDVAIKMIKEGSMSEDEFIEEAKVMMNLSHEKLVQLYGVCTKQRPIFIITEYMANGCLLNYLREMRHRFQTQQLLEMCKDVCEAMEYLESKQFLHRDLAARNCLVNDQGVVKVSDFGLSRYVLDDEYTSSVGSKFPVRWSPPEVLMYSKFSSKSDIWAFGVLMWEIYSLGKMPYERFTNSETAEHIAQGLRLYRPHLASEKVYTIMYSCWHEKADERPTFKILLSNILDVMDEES
Outline: as §1

Row | Sequence | % activity (EGFR(L858R)(h)) [%] | % activity (EphA2(h)) [%] | % activity (Syk(h)) [%] | % activity (PKBβ(h)) [%] | % activity (KDR(h)) [%] | % activity (ROCK-II(h)) [%] | % activity (p70S6K(h)) [%] | % activity (FAK(h)) [%] | % activity (MuSK(h)) [%] | % activity (TAK1(h)) [%] | % activity (IRAK4(h)) [%] | % activity (BTK(R28H)(h)) [%]
1 | KAFAKLAARLYRKALARQLGVAA [MMI-0400] | 52 | 17 | 9 | 98 | 94 | 77 | 33 | 96 | 93 | 177 | 59 | 24
2 | FAKLAARLYRKALARQLGVAA [MMI-0300] |  | 31 | 24 | 84 | 101 | 74 | 35 |  | 93 | 122 | 59 | 74
3 | YARAAARQARAKALARQLGVAA [MMI-0100] | 76 |  |  |  | 100 |  | 89 |  | 85 |  |  | 91
4 | HRRIKAWLKKIKALARQLGVAA (Mammal) [MMI-0500] | 26 |  | 5 | 21 | 15 | 2 | 3 | 94 | 27 |  | 3 | 10
5 | YARAAARQARAKALNRQLGVA (Mammal) [MMI-0200] | 120 | 95 | 36 | 250 | 110 | 85 | 84 | 110 |  | 124 | 110 | 

Reference: patent US20150258192A1, “COMPOSITIONS AND METHODS FOR PREVENTING OR TREATING CHRONIC LUNG ALLOGRAFT DYSFUNCTION (CLAD) AND IDIOPATHIC PULMONARY FIBROSIS (IPF)” (priority 2014, published 2015)
